# Results published in patent publication US20200297818A1 (ZEALAND PHARMA A S, published 2020).
# T1: human GLP-2 receptor (hGLP2-R) (human, UniProt O95838 1-553)
# T1 sequence (looked up): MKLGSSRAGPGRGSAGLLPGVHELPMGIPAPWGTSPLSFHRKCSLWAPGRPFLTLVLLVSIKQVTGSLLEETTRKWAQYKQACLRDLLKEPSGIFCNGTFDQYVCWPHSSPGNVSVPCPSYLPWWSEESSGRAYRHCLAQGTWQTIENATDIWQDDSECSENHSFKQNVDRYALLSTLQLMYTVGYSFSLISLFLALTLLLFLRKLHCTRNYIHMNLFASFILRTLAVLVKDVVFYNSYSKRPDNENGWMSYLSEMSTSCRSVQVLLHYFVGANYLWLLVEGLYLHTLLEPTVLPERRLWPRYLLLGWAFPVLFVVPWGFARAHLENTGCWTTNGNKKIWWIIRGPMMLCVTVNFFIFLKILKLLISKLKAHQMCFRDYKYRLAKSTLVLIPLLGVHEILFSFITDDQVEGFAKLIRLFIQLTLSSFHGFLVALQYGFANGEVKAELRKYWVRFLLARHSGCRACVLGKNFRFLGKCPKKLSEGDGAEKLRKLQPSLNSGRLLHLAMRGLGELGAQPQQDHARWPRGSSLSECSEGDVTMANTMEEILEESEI
# How the values were obtained:
# [1] = molecular target: human glucagon-like peptide 1 receptor (GLP-1 R) (human, UniProt P43220 24-463); test: cell-based or functional assay
# [2] = molecular target: T1, human GLP-2 receptor (hGLP2-R); test: cell-based or functional assay
Binder,EC50 GLP-1 (nM); cAMP response [1],EC50 GLP-2 (nM); cAMP response [2]
"HXEGTFTSELATILDGXAARDFIAWLIEHKITD (HELM PEPTIDE1{H.[Aib].E.G.T.F.T.S.E.L.A.T.I.L.D.G.K.A.A.R.D.F.I.A.W.L.I.E.H.K.I.T.D}|PEPTIDE2{[O=C(O)CCCCCCCCCCCCCCCCC(=O)[*:2]].[gGlu]}$PEPTIDE1,PEPTIDE2,17:R3-2:R2$$$V2.0; SMILES CC[C@H](C)[C@H](NC(=O)[C@H](Cc1ccccc1)NC(=O)[C@H](CC(=O)O)NC(=O)[C@H](CCCNC(=N)N)NC(=O)[C@H](C)NC(=O)[C@H](C)NC(=O)[C@H](CCCCNC(=O)CC[C@H](NC(=O)CCCCCCCCCCCCCCCCC(=O)O)C(=O)O)NC(=O)CNC(=O)[C@H](CC(=O)O)NC(=O)[C@H](CC(C)C)NC(=O)[C@@H](NC(=O)[C@@H](NC(=O)[C@H](C)NC(=O)[C@H](CC(C)C)NC(=O)[C@H](CCC(=O)O)NC(=O)[C@H](CO)NC(=O)[C@@H](NC(=O)[C@H](Cc1ccccc1)NC(=O)[C@@H](NC(=O)CNC(=O)[C@H](CCC(=O)O)NC(=O)C(C)(C)NC(=O)[C@@H](N)Cc1c[nH]cn1)[C@@H](C)O)[C@@H](C)O)[C@@H](C)O)[C@@H](C)CC)C(=O)N[C@@H](C)C(=O)N[C@@H](Cc1c[nH]c2ccccc12)C(=O)N[C@@H](CC(C)C)C(=O)N[C@H](C(=O)N[C@@H](CCC(=O)O)C(=O)N[C@@H](Cc1c[nH]cn1)C(=O)N[C@@H](CCCCN)C(=O)N[C@H](C(=O)N[C@H](C(=O)N[C@@H](CC(=O)O)C(=O)O)[C@@H](C)O)[C@@H](C)CC)[C@@H](C)CC) [Compound 9]",0.056 nM,0.056 nM
"HXEGTFSSELATILDXLAARDFIAWLIAHKITD (HELM PEPTIDE1{H.[Aib].E.G.T.F.S.S.E.L.A.T.I.L.D.K.L.A.A.R.D.F.I.A.W.L.I.A.H.K.I.T.D}|PEPTIDE2{[O=C(O)CCCCCCCCCCCCCCCCC(=O)[*:2]].[gGlu]}$PEPTIDE1,PEPTIDE2,16:R3-2:R2$$$V2.0; SMILES CC[C@H](C)[C@H](NC(=O)[C@H](CC(C)C)NC(=O)[C@H](Cc1c[nH]c2ccccc12)NC(=O)[C@H](C)NC(=O)[C@@H](NC(=O)[C@H](Cc1ccccc1)NC(=O)[C@H](CC(=O)O)NC(=O)[C@H](CCCNC(=N)N)NC(=O)[C@H](C)NC(=O)[C@H](C)NC(=O)[C@H](CC(C)C)NC(=O)[C@H](CCCCNC(=O)CC[C@H](NC(=O)CCCCCCCCCCCCCCCCC(=O)O)C(=O)O)NC(=O)[C@H](CC(=O)O)NC(=O)[C@H](CC(C)C)NC(=O)[C@@H](NC(=O)[C@@H](NC(=O)[C@H](C)NC(=O)[C@H](CC(C)C)NC(=O)[C@H](CCC(=O)O)NC(=O)[C@H](CO)NC(=O)[C@H](CO)NC(=O)[C@H](Cc1ccccc1)NC(=O)[C@@H](NC(=O)CNC(=O)[C@H](CCC(=O)O)NC(=O)C(C)(C)NC(=O)[C@@H](N)Cc1c[nH]cn1)[C@@H](C)O)[C@@H](C)O)[C@@H](C)CC)[C@@H](C)CC)C(=O)N[C@@H](C)C(=O)N[C@@H](Cc1c[nH]cn1)C(=O)N[C@@H](CCCCN)C(=O)N[C@H](C(=O)N[C@H](C(=O)N[C@@H](CC(=O)O)C(=O)O)[C@@H](C)O)[C@@H](C)CC) [Compound 13]",2.2 nM,0.099 nM
"HXEGSFTSELATILDXLAARDFIAWLIEHKITD (HELM PEPTIDE1{H.[Aib].E.G.S.F.T.S.E.L.A.T.I.L.D.K.L.A.A.R.D.F.I.A.W.L.I.E.H.K.I.T.D}|PEPTIDE2{[O=C(O)CCCCCCCCCCCCCCCCC(=O)[*:2]].[gGlu]}$PEPTIDE1,PEPTIDE2,16:R3-2:R2$$$V2.0; SMILES CC[C@H](C)[C@H](NC(=O)[C@H](Cc1ccccc1)NC(=O)[C@H](CC(=O)O)NC(=O)[C@H](CCCNC(=N)N)NC(=O)[C@H](C)NC(=O)[C@H](C)NC(=O)[C@H](CC(C)C)NC(=O)[C@H](CCCCNC(=O)CC[C@H](NC(=O)CCCCCCCCCCCCCCCCC(=O)O)C(=O)O)NC(=O)[C@H](CC(=O)O)NC(=O)[C@H](CC(C)C)NC(=O)[C@@H](NC(=O)[C@@H](NC(=O)[C@H](C)NC(=O)[C@H](CC(C)C)NC(=O)[C@H](CCC(=O)O)NC(=O)[C@H](CO)NC(=O)[C@@H](NC(=O)[C@H](Cc1ccccc1)NC(=O)[C@H](CO)NC(=O)CNC(=O)[C@H](CCC(=O)O)NC(=O)C(C)(C)NC(=O)[C@@H](N)Cc1c[nH]cn1)[C@@H](C)O)[C@@H](C)O)[C@@H](C)CC)C(=O)N[C@@H](C)C(=O)N[C@@H](Cc1c[nH]c2ccccc12)C(=O)N[C@@H](CC(C)C)C(=O)N[C@H](C(=O)N[C@@H](CCC(=O)O)C(=O)N[C@@H](Cc1c[nH]cn1)C(=O)N[C@@H](CCCCN)C(=O)N[C@H](C(=O)N[C@H](C(=O)N[C@@H](CC(=O)O)C(=O)O)[C@@H](C)O)[C@@H](C)CC)[C@@H](C)CC) [Compound 11]",0.32 nM,0.085 nM
"HXEGSFTSELATILDXLAARDFIAWLIAHKITD (HELM PEPTIDE1{H.[Aib].E.G.S.F.T.S.E.L.A.T.I.L.D.K.L.A.A.R.D.F.I.A.W.L.I.A.H.K.I.T.D}|PEPTIDE2{[O=C(O)CCCCCCCCCCCCCCCCC(=O)[*:2]].[gGlu]}$PEPTIDE1,PEPTIDE2,16:R3-2:R2$$$V2.0; SMILES CC[C@H](C)[C@H](NC(=O)[C@H](CC(C)C)NC(=O)[C@H](Cc1c[nH]c2ccccc12)NC(=O)[C@H](C)NC(=O)[C@@H](NC(=O)[C@H](Cc1ccccc1)NC(=O)[C@H](CC(=O)O)NC(=O)[C@H](CCCNC(=N)N)NC(=O)[C@H](C)NC(=O)[C@H](C)NC(=O)[C@H](CC(C)C)NC(=O)[C@H](CCCCNC(=O)CC[C@H](NC(=O)CCCCCCCCCCCCCCCCC(=O)O)C(=O)O)NC(=O)[C@H](CC(=O)O)NC(=O)[C@H](CC(C)C)NC(=O)[C@@H](NC(=O)[C@@H](NC(=O)[C@H](C)NC(=O)[C@H](CC(C)C)NC(=O)[C@H](CCC(=O)O)NC(=O)[C@H](CO)NC(=O)[C@@H](NC(=O)[C@H](Cc1ccccc1)NC(=O)[C@H](CO)NC(=O)CNC(=O)[C@H](CCC(=O)O)NC(=O)C(C)(C)NC(=O)[C@@H](N)Cc1c[nH]cn1)[C@@H](C)O)[C@@H](C)O)[C@@H](C)CC)[C@@H](C)CC)C(=O)N[C@@H](C)C(=O)N[C@@H](Cc1c[nH]cn1)C(=O)N[C@@H](CCCCN)C(=O)N[C@H](C(=O)N[C@H](C(=O)N[C@@H](CC(=O)O)C(=O)O)[C@@H](C)O)[C@@H](C)CC) [Compound 14]",0.57 nM,0.086 nM
"HXEGTFTSELATILDXLAARDFIAWLIEHKITD (HELM PEPTIDE1{H.[Aib].E.G.T.F.T.S.E.L.A.T.I.L.D.K.L.A.A.R.D.F.I.A.W.L.I.E.H.K.I.T.D}|PEPTIDE2{[O=C(O)CCCCCCCCCCCCCCCCC(=O)[*:2]].[gGlu]}$PEPTIDE1,PEPTIDE2,16:R3-2:R2$$$V2.0; SMILES CC[C@H](C)[C@H](NC(=O)[C@H](Cc1ccccc1)NC(=O)[C@H](CC(=O)O)NC(=O)[C@H](CCCNC(=N)N)NC(=O)[C@H](C)NC(=O)[C@H](C)NC(=O)[C@H](CC(C)C)NC(=O)[C@H](CCCCNC(=O)CC[C@H](NC(=O)CCCCCCCCCCCCCCCCC(=O)O)C(=O)O)NC(=O)[C@H](CC(=O)O)NC(=O)[C@H](CC(C)C)NC(=O)[C@@H](NC(=O)[C@@H](NC(=O)[C@H](C)NC(=O)[C@H](CC(C)C)NC(=O)[C@H](CCC(=O)O)NC(=O)[C@H](CO)NC(=O)[C@@H](NC(=O)[C@H](Cc1ccccc1)NC(=O)[C@@H](NC(=O)CNC(=O)[C@H](CCC(=O)O)NC(=O)C(C)(C)NC(=O)[C@@H](N)Cc1c[nH]cn1)[C@@H](C)O)[C@@H](C)O)[C@@H](C)O)[C@@H](C)CC)C(=O)N[C@@H](C)C(=O)N[C@@H](Cc1c[nH]c2ccccc12)C(=O)N[C@@H](CC(C)C)C(=O)N[C@H](C(=O)N[C@@H](CCC(=O)O)C(=O)N[C@@H](Cc1c[nH]cn1)C(=O)N[C@@H](CCCCN)C(=O)N[C@H](C(=O)N[C@H](C(=O)N[C@@H](CC(=O)O)C(=O)O)[C@@H](C)O)[C@@H](C)CC)[C@@H](C)CC) [Compound 12]",0.14 nM,0.11 nM
"HXEGTFSSELATILDXLAARDFIAWLIEHKITD (HELM PEPTIDE1{H.[Aib].E.G.T.F.S.S.E.L.A.T.I.L.D.K.L.A.A.R.D.F.I.A.W.L.I.E.H.K.I.T.D}|PEPTIDE2{[O=C(O)CCCCCCCCCCCCCCCCC(=O)[*:2]].[gGlu]}$PEPTIDE1,PEPTIDE2,16:R3-2:R2$$$V2.0; SMILES CC[C@H](C)[C@H](NC(=O)[C@H](Cc1ccccc1)NC(=O)[C@H](CC(=O)O)NC(=O)[C@H](CCCNC(=N)N)NC(=O)[C@H](C)NC(=O)[C@H](C)NC(=O)[C@H](CC(C)C)NC(=O)[C@H](CCCCNC(=O)CC[C@H](NC(=O)CCCCCCCCCCCCCCCCC(=O)O)C(=O)O)NC(=O)[C@H](CC(=O)O)NC(=O)[C@H](CC(C)C)NC(=O)[C@@H](NC(=O)[C@@H](NC(=O)[C@H](C)NC(=O)[C@H](CC(C)C)NC(=O)[C@H](CCC(=O)O)NC(=O)[C@H](CO)NC(=O)[C@H](CO)NC(=O)[C@H](Cc1ccccc1)NC(=O)[C@@H](NC(=O)CNC(=O)[C@H](CCC(=O)O)NC(=O)C(C)(C)NC(=O)[C@@H](N)Cc1c[nH]cn1)[C@@H](C)O)[C@@H](C)O)[C@@H](C)CC)C(=O)N[C@@H](C)C(=O)N[C@@H](Cc1c[nH]c2ccccc12)C(=O)N[C@@H](CC(C)C)C(=O)N[C@H](C(=O)N[C@@H](CCC(=O)O)C(=O)N[C@@H](Cc1c[nH]cn1)C(=O)N[C@@H](CCCCN)C(=O)N[C@H](C(=O)N[C@H](C(=O)N[C@@H](CC(=O)O)C(=O)O)[C@@H](C)O)[C@@H](C)CC)[C@@H](C)CC) [Compound 10]",1.8 nM,0.087 nM
